T1: MICB (antigen in solution in the BLI assay) (UniProt Q29980 24-297, limits assumed)
T1 construct: also called antigen (MICB)
T1 sequence (looked up): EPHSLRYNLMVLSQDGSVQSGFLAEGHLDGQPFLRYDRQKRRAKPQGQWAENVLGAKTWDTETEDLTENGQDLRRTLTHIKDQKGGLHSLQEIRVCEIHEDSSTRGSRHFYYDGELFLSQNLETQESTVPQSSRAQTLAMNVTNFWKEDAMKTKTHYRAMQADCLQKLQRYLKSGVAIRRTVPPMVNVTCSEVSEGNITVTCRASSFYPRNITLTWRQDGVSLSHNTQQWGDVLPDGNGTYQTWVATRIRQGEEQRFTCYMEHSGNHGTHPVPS

B1: antibody K (Ab-K; humanized HC2 / humanized LC3, human IgG1) (antibody, V domains shown)
VH: EVQLQESGPGLVKPSQTLSLTCTVSGYSITSDYAWNWIRQPPGKGLEWIGYISYSGSTNYNPSLKSRVTISRDTSKNQFSLKLSSVTAADTAVYYCARGGTYFDYWGQGTLVTVSS
VL: DVVMTQSPSTLSASVGDRVTITCRASAHINNWLAWYQQKPGKAPKLLISDATSLESGVPSRFSGSGSGKEYTLTISSLQPDDFATYYCQHYWSTPWTFGQGTKVEIKR
notes: also called K (HC2/LC3)
B2: antibody J (Ab-J; chimeric B10G5, parental HC / parental LC with human IgG1 Fc region) (antibody, V domains shown)
VH: EVQLEESGPGLVKPSQSLSLTCTVTGYSITSDYAWNWIRQFPGNKLEWMGYISYSGSTNYNPSLKSRISITRDTSKNQFFLQLNSVITEDTATYYCARGGTYFDYWGQGTTLTVSS
VL: DIVLTQTTSYLSVSLGGRVTIACKASAHINNWLAWYQQKPGNAPRLLISDATSLETGVPSRFSGSGSGKDYTLSITSLQTEDVATYYCQHYWSTPWTFGGGTKLEIK
notes: also called chimeric antibody B10G5

How the values were obtained:
[1] = biological target: T1, MICB (antigen in solution in the BLI …); experiment: BLI, Octet Red96; antibody captured on biosensor, MICB dilution series in solution; 1:1 model, global fit; Ab-K (humanized), FIG. 2B
Procedure: (§1) Bio-layer interferometry (BLI) was performed using Octet Red96 (ForteBio) generally as described by Kamat and Rafique, Analytical Biochemistry 536: 16-31 (2017). Antibody samples, Ab-K and Ab-J (chimeric B10G5), were captured on kinetic grade biosensors. The loaded biosensors were then dipped into a dilution series of samples containing antigen (MICB) serially diluted in PBS buffer with 0.1% BSA, 0.02% Tween-20, pH 7.2. […] Kinetic analysis was performed using a 1:1 binding model and global fitting with mass transport limitation using the Scrubber software.

[2] = biological target: T1, MICB (antigen in solution in the BLI …); experiment: BLI, Octet Red96; antibody captured on biosensor, MICB dilution series in solution; 1:1 model, global fit; Ab-J (chimeric B10G5), FIG. 2A
Procedure: as §1

| Binder | Kd [1] [nM] | Kd [2] [nM] |
| --- | --- | --- |
| B1 | 7.2 |  |
| B2 |  | 12.1 |

— US20250026837A1 (CANCURE, published 2025)
